# Article PMC10828496 (Cell Discovery, 2024)
# T1: METTL15^70–407 (Homo sapiens, UniProt A6NJ78, D119A)
# T1 construct: residues 70-407; N-terminal SUMO tag cleaved with ULP1; E. coli Rosetta (DE3)
# T1 sequence (A6NJ78 70-407 D119A): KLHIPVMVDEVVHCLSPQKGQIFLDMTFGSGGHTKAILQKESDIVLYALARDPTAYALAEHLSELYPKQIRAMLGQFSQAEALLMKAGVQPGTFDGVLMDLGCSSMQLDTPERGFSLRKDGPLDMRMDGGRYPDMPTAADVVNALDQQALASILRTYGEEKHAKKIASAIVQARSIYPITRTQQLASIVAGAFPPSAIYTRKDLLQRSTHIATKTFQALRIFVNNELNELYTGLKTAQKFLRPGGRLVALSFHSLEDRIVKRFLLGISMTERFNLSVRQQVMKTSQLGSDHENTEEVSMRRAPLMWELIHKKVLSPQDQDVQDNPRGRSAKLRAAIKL
# T2: METTL15^70–407 (Homo sapiens, UniProt A6NJ78)
# T2 construct: residues 70-407; N-terminal SUMO tag cleaved with ULP1; E. coli Rosetta (DE3)
# T2 sequence (A6NJ78 70-407): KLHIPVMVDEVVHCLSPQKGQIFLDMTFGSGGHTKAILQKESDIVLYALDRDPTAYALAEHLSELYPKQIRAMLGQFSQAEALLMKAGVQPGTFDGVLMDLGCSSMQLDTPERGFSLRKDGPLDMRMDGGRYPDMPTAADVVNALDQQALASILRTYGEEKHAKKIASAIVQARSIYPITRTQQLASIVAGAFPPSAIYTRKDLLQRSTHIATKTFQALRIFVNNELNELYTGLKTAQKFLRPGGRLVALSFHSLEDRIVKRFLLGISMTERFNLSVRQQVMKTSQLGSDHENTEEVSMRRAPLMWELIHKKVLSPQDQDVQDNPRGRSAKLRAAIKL
# T3: METTL15 WT (Homo sapiens, UniProt A6NJ78 70-407)
# T3 sequence: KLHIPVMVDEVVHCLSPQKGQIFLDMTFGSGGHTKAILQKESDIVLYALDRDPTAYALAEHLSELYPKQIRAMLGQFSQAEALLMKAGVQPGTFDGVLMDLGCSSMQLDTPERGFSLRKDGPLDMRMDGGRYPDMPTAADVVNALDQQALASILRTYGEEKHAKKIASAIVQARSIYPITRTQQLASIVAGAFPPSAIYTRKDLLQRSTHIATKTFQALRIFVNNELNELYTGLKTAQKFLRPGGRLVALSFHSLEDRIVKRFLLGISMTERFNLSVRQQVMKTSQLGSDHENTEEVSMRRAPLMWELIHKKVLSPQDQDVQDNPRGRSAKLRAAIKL
# T4: METTL15 WT;hsRBFA C-terminal helix (Homo sapiens;Homo sapiens, UniProt A6NJ78;Q8N0V3 70-407;226-260, |)
# T4 sequence 1: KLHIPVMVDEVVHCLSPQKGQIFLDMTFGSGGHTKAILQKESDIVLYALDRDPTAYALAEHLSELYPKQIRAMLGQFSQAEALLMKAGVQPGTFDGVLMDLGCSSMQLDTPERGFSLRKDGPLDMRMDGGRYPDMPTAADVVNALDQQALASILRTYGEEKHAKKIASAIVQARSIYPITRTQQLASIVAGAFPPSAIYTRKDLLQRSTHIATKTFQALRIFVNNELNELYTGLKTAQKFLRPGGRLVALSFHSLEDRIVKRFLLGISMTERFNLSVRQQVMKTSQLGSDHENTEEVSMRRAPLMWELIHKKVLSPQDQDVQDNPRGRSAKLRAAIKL
# T4 sequence 2: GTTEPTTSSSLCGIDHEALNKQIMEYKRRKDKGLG
# T5: METTL15 K380A/K381A (Homo sapiens, UniProt A6NJ78 70-407, K380A;K381A)
# T5 sequence: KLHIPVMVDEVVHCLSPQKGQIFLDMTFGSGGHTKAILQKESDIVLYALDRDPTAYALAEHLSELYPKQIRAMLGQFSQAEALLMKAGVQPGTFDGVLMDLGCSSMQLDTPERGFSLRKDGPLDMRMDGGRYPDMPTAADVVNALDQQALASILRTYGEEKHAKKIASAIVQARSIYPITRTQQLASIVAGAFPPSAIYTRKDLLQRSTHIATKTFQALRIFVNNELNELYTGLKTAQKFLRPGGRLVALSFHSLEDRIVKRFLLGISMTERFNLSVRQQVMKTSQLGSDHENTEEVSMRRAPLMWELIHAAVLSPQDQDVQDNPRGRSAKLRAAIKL
# T6: METTL15 F262A/P263A/K270A (Homo sapiens, UniProt A6NJ78 70-407, F262A;P263A;R270A)
# T6 sequence: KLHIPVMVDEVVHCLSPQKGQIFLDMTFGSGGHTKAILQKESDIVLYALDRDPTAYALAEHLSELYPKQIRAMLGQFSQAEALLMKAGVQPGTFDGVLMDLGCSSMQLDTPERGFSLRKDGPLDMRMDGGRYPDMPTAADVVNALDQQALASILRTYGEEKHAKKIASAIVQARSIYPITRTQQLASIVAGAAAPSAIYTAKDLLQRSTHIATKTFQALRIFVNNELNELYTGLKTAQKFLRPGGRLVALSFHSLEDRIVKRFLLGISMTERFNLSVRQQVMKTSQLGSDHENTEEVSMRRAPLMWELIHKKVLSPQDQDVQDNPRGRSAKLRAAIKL
# T7: METTL15 R327A/K330A/R331A (Homo sapiens, UniProt A6NJ78 70-407, R327A;K330A;R331A)
# T7 sequence: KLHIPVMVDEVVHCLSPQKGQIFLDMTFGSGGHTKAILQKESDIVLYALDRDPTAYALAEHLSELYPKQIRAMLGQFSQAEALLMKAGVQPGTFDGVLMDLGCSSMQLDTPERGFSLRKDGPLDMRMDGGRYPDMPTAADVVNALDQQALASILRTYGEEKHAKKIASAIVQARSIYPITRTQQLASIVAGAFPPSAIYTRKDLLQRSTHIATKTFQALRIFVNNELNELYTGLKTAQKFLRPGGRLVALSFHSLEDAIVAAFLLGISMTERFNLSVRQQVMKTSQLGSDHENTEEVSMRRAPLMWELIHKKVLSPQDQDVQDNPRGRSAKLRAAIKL
# T8: METTL15 H231A/K234A/F262A (Homo sapiens, UniProt A6NJ78 70-407, H231A;K234A;F262A)
# T8 sequence: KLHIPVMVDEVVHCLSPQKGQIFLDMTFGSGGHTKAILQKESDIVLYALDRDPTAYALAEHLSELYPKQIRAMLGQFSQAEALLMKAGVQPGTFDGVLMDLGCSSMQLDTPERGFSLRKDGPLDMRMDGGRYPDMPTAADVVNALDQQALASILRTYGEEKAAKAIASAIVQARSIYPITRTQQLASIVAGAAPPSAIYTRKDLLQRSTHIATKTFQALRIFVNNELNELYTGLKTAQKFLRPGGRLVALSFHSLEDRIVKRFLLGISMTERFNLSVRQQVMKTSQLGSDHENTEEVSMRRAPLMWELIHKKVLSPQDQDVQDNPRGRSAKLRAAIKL
# Key:
# [1] = biological target: T1, METTL15^70–407; assay: isothermal titration calorimetry; format: binding
# [2] = biological target: T2, METTL15^70–407; assay: isothermal titration calorimetry; format: binding
# [3] = biological target: T3, METTL15 WT; assay: fluorescence polarization; FP: dilution buffer B (50 mM Na2HPO4, 150 mM NaCl, pH 7.0), 20 C, 15 min incubation, 80 nM FAM-RNA stock mixed 1:1 (40 nM final); 1:1 binding model; conditions: protein: recombinant, tags: SUMO tag removed (ULP1), label: 5'-FAM
# [4] = biological target: METTL15^70–407 (human METTL15, residues 70–407), wild type (human, UniProt A6NJ78 70-407); assay: ITC; Microcal PEAQ-ITC, 20 °C, buffer B (50 mM Na2HPO4, 150 mM NaCl, pH 7.0); hsRBFA 600 μM and METTL15 40 μM; single binding site model; conditions: both partners purified
# [5] = biological target: METTL15^70–407 N212A (human, UniProt A6NJ78 70-407, N212A); assay: as above; conditions: both partners purified
# [6] = biological target: METTL15^70–407 D209A (human, UniProt A6NJ78 70-407, D209A); assay: as above; conditions: both partners purified
# [7] = biological target: T4, METTL15 WT;hsRBFA C-terminal helix; assay: fluorescence polarization; +hsRBFA 226-260; FP: dilution buffer B (50 mM Na2HPO4, 150 mM NaCl, pH 7.0), 20 C, 15 min incubation, 80 nM FAM-RNA stock mixed 1:1 (40 nM final); 1:1 binding model; conditions: protein: recombinant;recombinant, tags: SUMO tag removed (ULP1);GST tag removed (TEV), copies: 1;1, label: 5'-FAM
# [8] = biological target: T5, METTL15 K380A/K381A; assay: fluorescence polarization; FP: dilution buffer B (50 mM Na2HPO4, 150 mM NaCl, pH 7.0), 20 C, 15 min incubation, 80 nM FAM-RNA stock mixed 1:1 (40 nM final); 1:1 binding model; conditions: protein: recombinant; tags: SUMO tag removed (ULP1); label: 5'-FAM; hairpin
# [9] = biological target: T6, METTL15 F262A/P263A/K270A; assay: as above; conditions: protein: recombinant; tags: SUMO tag removed (ULP1); label: 5'-FAM; hairpin
# [10] = biological target: T7, METTL15 R327A/K330A/R331A; assay: as above; conditions: protein: recombinant; tags: SUMO tag removed (ULP1); label: 5'-FAM; hairpin
# [11] = biological target: T8, METTL15 H231A/K234A/F262A; assay: as above; conditions: protein: recombinant; tags: SUMO tag removed (ULP1); label: 5'-FAM; hairpin
molecule,measurement,setting,value
C[S+](CC[C@H](N)C(=O)O)C[C@H]1O[C@@H](n2cnc3c(N)ncnc32)[C@H](O)[C@@H]1O (some centres unmarked) [SAM],Kd,[1],17.3 ± 0.31 µM
same,Kd,[2],2990 ± 360 nM
CGACACCGCCCGUAACGGUGUCG (structured_RNA) [5'-FAM-h44_dsRNA4],Kd,[3]; hairpin,2330 ± 130 nM
"GTTEPTTSSSLCGIDHEALNKAIMEYKRRKDKGLG (domain or fragment, human, UniProt Q8N0V3 226-260, looked up) [hsRBFA^226–260 Q247A]",Kd,[4],410 nM
same,dH,[4],-11.5 ± 0.2 kcal/mol
"GTTEPTTSSSLCGIDHEALNKQIMEYKRRKDKGLG (domain or fragment, UniProt Q8N0V3 226-260, looked up) [hsRBFA^226–260 (human hsRBFA, residues 226–260), wild type]",Kd,[5],1120 nM
same,dH,[5],-9.5 ± 0.34 kcal/mol
same,Kd,[6],7.94 µM
same,dH,[6],-7.43 ± 0.32 kcal/mol
"GTTEPTTSSSLCGIDHEALNKQIMEYARRKDKGLG (domain or fragment, human, UniProt Q8N0V3 226-260, looked up) [hsRBFA^226–260 K252A]",Kd,[4],19600 nM
same,dH,[4],-17.2 ± 3.1 kcal/mol
"GTTEPTTSSSLCGIDHEALAKQIMEYKRRKDKGLG (domain or fragment, human, UniProt Q8N0V3 226-260, looked up) [hsRBFA^226–260 N245A]",Kd,[4],610 nM
same,dH,[4],-10.6 ± 0.2 kcal/mol
CACACCGCCCGUCAC (ssRNA) [5'-FAM-h44_ssRNA3],Kd,[3],2200 ± 330 nM
same,Kd,[7],1760 ± 160 nM
CGACCGGAAGCGGUCG (structured_RNA) [5'-FAM-h44_dsRNA2],Kd,[3]; hairpin,770 ± 50 nM
CGACCGCCCGUAACGGUCG (structured_RNA) [5'-FAM-h44_dsRNA1],Kd,[3]; hairpin,1100 ± 90 nM
same,Kd,[8],2680 ± 290 nM
same,binding result,[9],no binding
same,Kd,[10],1030 ± 150 nM
same,binding result,[11],no binding
same,Kd,[7]; hairpin,1150 ± 80 nM
AAAAAAAAAAAAA (ssRNA) [5'-FAM-polyA13],Kd,[3],610 ± 110 nM
